The values that follow come from the nanobody polyreactivity screen of Harvey et al. (2022).

The nature of the series: yeast display, Sf9 membrane polyspecificity reagent, FACS + sequencing; frameworks hold sequencing errors. The method in brief:
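After 36–48 hours of galactose induction, yeast (Saccharomyces cerevisiae BJ5465) displaying a synthetic nanobody library were stained at 4 °C for 1 hour with 10% biotinylated, detergent-solubilized Sf9 membrane reagent. Streptavidin microbeads enriched the stained cells before FACS sorting into low and high (top ~1%) gates on anti-HA and streptavidin fluorescence. Each clone's polyreactivity label reflects its gate of origin.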
On to “QVQLVESGGGLVQAGGSLRLSCAASGFTFDAYTMGWYRQAPGKERELVAAINWSGDTTYYADSVKGRFTISRDNAKNTVYFQMNSLKPEDTAVYYCAAVWWIYGVWFDYWGQGTQVTVSS”, for which the “polyreactivity (PSR sort gate)” value is listed as “high polyreactivity”. Turning to “QVQLVESGGGLVQAGGSLRLSCAASGSIFLEYTMGWYSQAPGKECVLVAAITSGGSTKYADSVKGRFTISRDTAKNTVYLQMNILKPEDTAVYYCNARHYSREFDYWGQGTQVTVSS”, the “polyreactivity (PSR sort gate)” value was “low polyreactivity”. Consider “QVQLVESGGGLVQAGGSLRLSCAASGSIFGLYAMGWYRQAPGKERELVAAINQSGGSTSYADSVKGRFTISRDTAKNTVYLQMNSLKPEDTAVYYCAVAIVTSGPFPRDYWGQGTQVTVSS”, for which the “polyreactivity (PSR sort gate)” value was “low polyreactivity”. The value for “QVHLVESGGGLVQAGGSLRLSCAASGRTFIGNAMGWYRQATGKERELVAGITWSGGRSYYADSVKGRFTISRDNAKNTVYLQMNSQKPEDTAVYYCGRAGQSSRMNYWGQGTQVTVSS” was “high polyreactivity”. With “QVQLVESGGGLVQAGGSLRLSCAASGRIFGYYAMGGYRQAPGKERELVASISYSGASSYYADSVKGRFTISRDNAKNTVYLQMNSLKPEDTAVYYCNTDGDDFFHVIYDYWGQGTQVTVSS”, the “polyreactivity (PSR sort gate)” value is recorded as “low polyreactivity”. For “QVQRVESGGGLVQAGGSLRLSWAASGSTFSRYAMGWYRQAPGTERELVAAISASGGGTYYADSVKGRFTISRDNAKNTVYLQMNSLQPEDTAVFYCAAVRIARAVQDYDYWGQGTQVTVSS”, the “polyreactivity (PSR sort gate)” value is on record as “high polyreactivity”. For the sequence “QVQLVESGGGLVQAGGSLRLSCAASGRTFPWYAMGWYRQAPGKERELVATISRSGASTYYADSVKGRFTISRDNAKNTVYLQMNSLKPEDTAVYYCAARLGYATLYSWGQGTQVTVSS”, the “polyreactivity (PSR sort gate)” value is on record as “high polyreactivity”. As for “QVKLQESGGGLVQAGGSLRLSCAASGYIFLHYYMGWYRQAPGKEREFVAGITSGTNTNYADSVKGRFTIRDNAKNTVYLQMNSLKPEDTAVCYCAVTYPYWGDYTYWGQGTQVTVSS”, the “polyreactivity (PSR sort gate)” value is recorded as “low polyreactivity”. As to “QVQLVQSGGGLVQAGGSLRLSCAASGSTFRRKVMGWYRQAPGKETELVAAISWSGTSTNYADSEKGRFTISRDNAKNTVYLQMNSVKPEDTAVYYCATQSLYYRWGLDYWGQGTEVTVSS”, the “polyreactivity (PSR sort gate)” value is “high polyreactivity”. On to “QVQLVESGGGLVQAGGSLRLSCAASASTLYYNAMAWYIQAPGKERELVAAITSGGSTSYADSVKGRFTISRDNAKNTVYLQMNSLKPEDTAVYYCAAVFYRRFDYWGQGTQVTVSS”, for which the “polyreactivity (PSR sort gate)” value is “low polyreactivity”.

Take “QVQLVESGGGLVQAGGSLRLSCAASGFTFRYYAMGWYRQAPGKERELVAAISSGGNTRYADSVKGRFTISRDNAKNTVYLQMNSLKPEDTAVYYCARRPGAWKYVYTGDYWGQGTQVTVSS”: the “polyreactivity (PSR sort gate)” value is “high polyreactivity”.

In the case of “QVQLVESGGGLVQAGGSLRLSCAASGRTFRGNAMGWYRQAPGKERELVAAISWSGGRTYYADSVKGRFTISRDNAKNTVYLQMNSLKPEDTAVYYCAAGVPKNGQAGYDYWGQGTQVTVSS”, the “polyreactivity (PSR sort gate)” value was “high polyreactivity”. In the case of “QVQLVESGGGLVQAGGSLRLSCAASGSTLRGYTMGWYRQAPGKERELVAAISWSGASTYYADSVKGRFTISRDNAKNTVYLQMNSLKPEDTAVYYCNRAGRYVREYTVDYWGQGTQVTVSS”, the “polyreactivity (PSR sort gate)” value was “high polyreactivity”.

In the case of “QVQLVESGGGLVQAGGSLRLSCAASGFIFSYYVMGWYRQAPGKERELVASISARVGSTYYADSVKGRFTISRDNAKNTVYLQMNSLKPEDTAVYYCNTARVKYRWYNYWGQGTQVTVSS”, the “polyreactivity (PSR sort gate)” value is “high polyreactivity”. With “QVQLVESGGGLVQAGGSLRLSCAASGFIFSQYAMGWYRQAPGKERELVAAISYRGGSTYYADSVKGRFTISRDNAKNTVYLQMNSLKPEDTAVYYCNAGRRSQTYLGTCDYWGQGTQVTVSS”, the “polyreactivity (PSR sort gate)” value is “high polyreactivity”.

For “QDQLVESGGGLVQPGGSLRLSCAASGITFYYYTMGWYRQAPGKERELVAGITRGGRTYYADSVKGRFTISRDNAKNTVYLQMNSLKPVDSAVYYCNADPWWRFDYWGQGTQVTVSS”, the “polyreactivity (PSR sort gate)” value was “low polyreactivity”. In the case of “QVQLVESGGGLVQAGGSLRLSCAASGLTFRYYAMGWYRQAPGKEREWVASITSRGTSTYYADSVKGRFTISRDNAKNTVYLQMNSLKPEDTAVYYCAKPVGTVGYDYWGQGTQVTVSS”, the “polyreactivity (PSR sort gate)” value is reported as “high polyreactivity”. Regarding “QVQLVESGGGLVQAGGSLSLSCAASGIIFYNYAMGWYRQAPGKERELVAAISSSGGRTYYAESVKGRFTISRDNAKNTVYLQMNSLKPEDTAVYYCAAYVWAYYVPYNYGYWGQGTQVTVSS”, the “polyreactivity (PSR sort gate)” value is on record as “high polyreactivity”. The value for “QVQLVESGGGLVQAGGSLRLSCAASGRISPNNAMGWYRQAPGKERELVAAITASGGTTYYADSVKGRFTISRDNAKNTVYLQMNSLKPEDTAVYYCAAAVWYRGWYRYDYWGQGTQVTVSS” was “low polyreactivity”; that for “QVQLVESGGGLVQAGGSLRLSCAASGSILYLYAMGWYRPAPGKERELVAAITRIGGSTYYADSVKGRFTISRDNAKNTVYLQMNSLKPEDTAVYYCAAGGTARDDSWGQGTQVTVSS” was “low polyreactivity”. “QVQLVESGGGLVQAGGSLRLSCAASGNIFKGYAMGWYRQAPGKERELVAAISKSGGSTYYADSVKGRFTISRDNAKNTVYLQMNSLKPEDTAVYYCAARSGGSGGTYGYWGQGTQVTVSS”: the “polyreactivity (PSR sort gate)” value is given as “high polyreactivity”.

“QVQHVESGGGLVQAGGSLRLSSAASGRIFKRNALGWYRQAPGKEREMVATISGSGGSTYYADSVKGRFTISRDNAKNTVYLQMNSLNPEDTAVYYCAAGYKSYWRLSSPKMDYWGQGTQVTVSS”: the “polyreactivity (PSR sort gate)” value is “high polyreactivity”. Regarding “QVQLVESGGGLVQAGGSLRLSCAASGITFVRYALGWYRPAPGKERELVAAISRRGGSTYYADSVKGRFTISRDNAKNTVYLQMNSLKPEDTAVYYCNAQRPKATVWQLYDSWGQGTQVTVSS”, the “polyreactivity (PSR sort gate)” value was “high polyreactivity”. On to “QVQLVESGGGLVQAGGSLRLSCAASGFIFDPYAMGWYRQAPGKERELVAAISRGGSTYYADSVKGRFTISRDNAKNIVYLQMNSLKPEDTAVYYCAAVFKFTREYSTGIRYYYWGQGTQVTVSS”, for which the “polyreactivity (PSR sort gate)” value is “high polyreactivity”.

As for “QVQLVESGGGLVQAGGSLRLSCAASGFILEGYAMGWYRQAPGKERELVAAITRRGTRTYYADSVKGRFTISRDNAKNTVYLQMNSLKPEDTAVFYCNAESRSTWVAGYDYWGQGTQVTVSS”, the “polyreactivity (PSR sort gate)” value is listed as “high polyreactivity”.

On to “QVQLVESGGGLVQAGGSLRLSCAASGSIFLGYTMGWYRQAPGKERELVAAINSSGGSTYYADSVKGRFTISRDNAKNTVYLQMNSLKAEDTAVYYCADANSILLFDSWGQGTQVTVSS”, for which the “polyreactivity (PSR sort gate)” value is on record as “low polyreactivity”. The value for “QVQLVESGGGLVQAGGSLRLSCAASGSIFAPNAMGWYRQAPGKEREFVAGITQSGTSTYADSVKGRFTISRDNAKNTVYLQMNSLKPEDTAVYYCAAEYYYGYWYGYIISYDYWGQGTQVTVSS” was “high polyreactivity”; that for “QVQLVESGGGLVQAGGSLRLSCAACGIIFSWYAMGWYRQAPGKERELVAAISSSGGTTFYADSVKGRFTISRDKAKNTVYLQMNSLKPEDTAVYYCAVVGPPYYTWRVWRPAYDYWGQGTQVTVSS” was “high polyreactivity”.

For “QVQLVESGGGLVQAGGSLRLSCAASGRIFIYNAMGWYRQAPGKERELVAAISSGGSTYYADSVKGRFTISRDNANNTVYLQMNSLKAEDTAVYYCAAPRGHGKYYSWGQGTQVTVSS”, the “polyreactivity (PSR sort gate)” value was “high polyreactivity”.

Regarding “QVQLVESGGGLVQAGGSLRLTCAASGSIIWAYAKGWYRQAPGKERELVAAISSGGSTYYADSVKGRFTISRDNAKNIVYLQMNCLKPEDTPVFYCAASWSRRYYYWGQGTQVTVSS”, the “polyreactivity (PSR sort gate)” value is given as “high polyreactivity”.
